Laboratory results published in publication PMC10847417, “CIP2A induces PKM2 tetramer formation and oxidative phosphorylation in non-small cell lung cancer” (Cell Discovery, 2024).

Molecular target: the molecule itself
Experiment: SEC; purified recombinant WT, S287A and S287D PKM2 expressed in bacteria; size exclusion chromatography with molecular mass standards

B1: purified recombinant S287D PKM2 expressed in bacteria (enzyme)
chain: not shown
notes: PKM2 S287D (phospho-mimetic), recombinant; construct, tag and limits not described; source: expressed in bacteria, purified recombinant
stoichiometry N: 4

B2: purified recombinant S287A PKM2 expressed in bacteria (enzyme)
chain: not shown
notes: PKM2 S287A, recombinant; construct, tag and limits not described; source: expressed in bacteria, purified recombinant
stoichiometry N: 2
